Laboratory results from US20140348836A1 (published 2014).
Numbering of substitutions follows the chain as printed. Names may count otherwise.

B1: Antibody clone A4 (antibody, human IgG1, lambda, V domains shown)
VH: EVQLLESGGGLVQPGGSLRLSCAASGFTFSTYGMHWVRQAPGKGLEWLSYISGGSSYIFYADSVRGRFTISRDNSENALYLQMNSLRAEDTAVYYCARILRGGSGMDLWGQGTLVTVSS
VL: QSVLTQPPSASGTPGQRVTISCTGSTSNIGAGYKVYWYQQLPGTAPKLLIYGNINRPSGVPDRFSGSKSGTSASLAISGLRSEDEADYYCAAWDDSLSGLVFGGGTKLTVLG
notes: Tested as purified antibody; full chains are assembled here from VH/VL plus these; also called A4 ANTI-CD40 ANTIBODY
B2: Antibody B44 (antibody, V domains shown)
VH: B1 VH
VL: B1 VL with T26S, K34D
notes: Parent agonistic anti-CD40 antibody from the n-CoDeR library; Run alongside the IgG clones as 'B44 antibody' and detected with anti-human Ig on RAMOS cells; also called B44 antibody; original anti-CD40 antibody
B3: Antibody clone H11 (antibody, human IgG1, lambda, V domains shown)
VH: B1 VH
VL: B1 VL with T26S, K34N, D95G, S96G, S98L
notes: also called H11 ANTI-CD40 ANTIBODY
B4: Antibody clone C4 (antibody, human IgG1, lambda, V domains shown)
VH: B1 VH with S63T
VL: B1 VL
notes: Same VL changes as A4; VH carries S63T; also called C4 ANTI-CD40 ANTIBODY
B5: Antibody clone B9 (antibody, human IgG1, lambda, V domains shown)
VH: B1 VH
VL: B1 VL with T26S, K34N, D95G, S96G, S98L
B6: Antibody clone F6 (antibody, human IgG1, lambda, V domains shown)
VH: B1 VH
VL: B1 VL with T26S, K34D, G52R, D95G, S98L
B7: Antibody clone A5 (antibody, human IgG1, lambda, V domains shown)
VH: B1 VH
VL: B1 VL with T26S, K34H, N53S, A73G, D95S, L97S
B8: Antibody clone F9 (antibody, human IgG1, lambda, V domains shown)
VH: B1 VH
VL: B1 VL with T26S, K34G, D95G, S96T, S98T, V101L

target: T1, human CD40 on cells (human, UniProt P25942 21-277); experiment: flow cytometry (FACS) on RAMOS cells, anti-human Ig F(ab')2-FITC detection, MFI
T1 construct: whole, on cells; One molecule is used for native or transfected full-length human CD40 on all the cell types tested; also called CD40 on RAMOS cells; CD40 receptor on dendritic cells
Protocol: (§1) The human Burkitt's lymphoma cell line RAMOS was used for binding analysis (ECACC, Sigma Aldrich, USA). The unconjugated anti-CD40 antibodies of the invention were assayed for binding to RAMOS cells.
(§2) RAMOS cells, approximately 125,000 cells, were incubated with anti-CD40 antibody, serially diluted 1/3 from 30-0.0015 μg/ml, for 30 minutes at 4° C. The cells were washed twice with FACS buffer and the secondary antibody, anti-human Ig Rabbit F(ab′)2/FITC (DAKO, Glostrup, Denmark), was subsequently added to the cells for another 30 minutes at 4° C. The cells were washed and analysed on a FACScalibur instrument, according to the manufacturer's instructions (Becton Dickinson, USA) and then the mean fluorescent intensity (“MFI”) was determined.

T1 sequence (P25942 21-277): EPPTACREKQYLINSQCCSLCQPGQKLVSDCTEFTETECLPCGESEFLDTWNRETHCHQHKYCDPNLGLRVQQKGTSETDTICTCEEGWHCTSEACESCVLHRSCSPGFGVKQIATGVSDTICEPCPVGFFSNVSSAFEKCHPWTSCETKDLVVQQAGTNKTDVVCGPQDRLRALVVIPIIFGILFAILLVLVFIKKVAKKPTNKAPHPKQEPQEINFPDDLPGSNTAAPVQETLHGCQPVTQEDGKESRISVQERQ

EC50	Binder
0.007 µg/mL	B1
0.38 µg/mL	B2
0.0044 µg/mL	B3
0.0061 µg/mL	B4
0.0049 µg/mL	B5
0.0058 µg/mL	B6
0.0062 µg/mL	B7

target: T1, human CD40 on cells; experiment: cell-based or functional assay

Activation of B cells, EC50 (proliferation of CD19+ B cells, Cell titer-Glo)	Binder
0.16 µg/mL	B1
0.204 µg/mL	B2
0.46 µg/mL	B3
0.21 µg/mL	B8
0.288 µg/mL	B4
0.48 µg/mL	B5
0.4 µg/mL	B6
0.29 µg/mL	B7

target: T1, human CD40 on cells; experiment: cell-based or functional assay; remark: another data set of the same source

Allo DC/T IFN-γ EC50	Allo DC/T IFN-γ Max	Binder
0.04 µg/mL	8.9 pg/mL	B1
0.2 µg/mL	8.7 pg/mL	B2
0.03 µg/mL	9.5 pg/mL	B3
0.12 µg/mL	9 pg/mL	B4
0.03 µg/mL	8.5 pg/mL	B5
0.15 µg/mL	9 pg/mL	B6
0.08 µg/mL	9.5 pg/mL	B7

target: T1, human CD40 on cells; experiment: cell-based or functional assay; remark: another data set of the same source

EC50 of CD80 up-regulation on monocyte-derived dendritic cells (FACS)	EC50 of CD86 up-regulation on monocyte-derived dendritic cells (FACS)	EC50 of MHC II up-regulation on monocyte-derived dendritic cells (FACS)	Maximum Fold Increase of CD80 on dendritic cells	Maximum Fold Increase of CD86 on dendritic cells	Maximum Fold Increase of MHC II on dendritic cells	Binder
0.17 µg/mL	0.13 µg/mL	0.14 µg/mL	599 fold	149 fold	851 fold	B1
0.25 µg/mL	0.37 µg/mL	0.51 µg/mL	584 fold	132 fold	811 fold	B2
0.14 µg/mL	0.14 µg/mL	0.22 µg/mL	641 fold	195 fold	481 fold	B3
0.031 µg/mL	0.11 µg/mL	0.04 µg/mL	609 fold	164 fold	395 fold	B4

target: T2, CD40hfc (R&Dsystems, USA) (UniProt P25942 21-193); experiment: SPR (Biacore 3000), CD40hfc amine-coupled on chip, antibody as analyte, 37 C, acetate buffer pH 5.4
T2 construct: Bought reagent; also called immobilized CD40 receptor; target; not shown: Fc part ('hfc') of the bought fusion
Protocol: (§3) The affinity measures of purified antibodies by surface plasmon resonance using the Biacore 3000 instrument was performed according to manufacturer's protocols.
(§4) The CD40hfc (R&Dsystems, USA) was immobilized to the BIAcore sensorchip, CMS, using conventional amine coupling. The anti-CD40 antibodies of the invention, (serially diluted 1/3 from 1-0.012 nM) were analysed for binding in HBS-P (GE, BR-1003-68) at a flow rate of 30 μl/min at 37° C. and pH 7.3. The association was followed for 3 minutes and the dissociation for 10 minutes. Regeneration was performed twice using 50 mM NaOH for 30 seconds. The kinetic parameters and the affinity constants were calculated using BlAevaluation 4.1 software.
Alternatively, samples were incubated in Acetate buffer pH 5.4, 10 mM Acetate, 150 mM NaCl, 0.005% T20, at 37° C.

T2 sequence (P25942 21-193 limits assumed): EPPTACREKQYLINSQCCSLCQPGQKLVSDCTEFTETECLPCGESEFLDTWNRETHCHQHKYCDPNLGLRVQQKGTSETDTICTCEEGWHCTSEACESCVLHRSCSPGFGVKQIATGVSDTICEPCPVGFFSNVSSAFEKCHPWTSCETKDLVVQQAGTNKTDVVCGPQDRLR

Kd	koff	kon	Binder
20 pM	0.00022 s⁻¹	1.1e+07 M⁻¹ s⁻¹	B1
930 pM	0.0055 s⁻¹	6e+06 M⁻¹ s⁻¹	B2
33 pM	0.00032 s⁻¹	9.7e+06 M⁻¹ s⁻¹	B5
22 pM	0.00025 s⁻¹	1.1e+07 M⁻¹ s⁻¹	B7

target: T1, human CD40 on cells; experiment: flow cytometry (FACS) on RAMOS cells
Protocol: as §1, §2

fold increase in potency (binding to RAMOS cells) versus B44	Binder
~100 fold	B1
~100 fold	B3
~100 fold	B4
~100 fold	B5
~100 fold	B6
~100 fold	B7

target: T2, CD40hfc (R&Dsystems, USA); experiment: SPR (Biacore 3000), CD40hfc amine-coupled on chip, antibody as analyte, 37 C, pH 7.3
Protocol: as §3, §4

Kd	koff	kon	Binder
10 pM	7.6e-05 s⁻¹	7.3e+06 M⁻¹ s⁻¹	B1
1700 pM	0.0045 s⁻¹	2.7e+06 M⁻¹ s⁻¹	B2
16 pM	0.00013 s⁻¹	8.5e+06 M⁻¹ s⁻¹	B3
14 pM	0.00012 s⁻¹	8.5e+06 M⁻¹ s⁻¹	B5
11 pM	9.6e-05 s⁻¹	8.5e+06 M⁻¹ s⁻¹	B7

target: T2, CD40hfc (R&Dsystems, USA); experiment: SPR, physiological pH and 37 C
Protocol: as §3, §4

fold improvement of affinity versus B44	Binder
~100 fold	B1
~100 fold	B3
~100 fold	B8
~100 fold	B4
~100 fold	B5
~100 fold	B6
~100 fold	B7

target: T1, human CD40 on cells; experiment: cell-based or functional assay; remark: another data set of the same source

Fold change in potency versus B44 antibody (rescue of huCD40/WEHI-231 cells from apoptosis and growth arrest)	Binder
46 fold	B1
52 fold	B4
38 fold	B5
19 fold	B7
